Numbered stars: 1 amine (or outer) side, 2 acyl side, 3 side chain; on linkers, the order of the positions; unused ones are H or OH. Bridge positions count the residues as written; N and C are the ends. Side chains are listed from the residue outwards. Ends that are not written are not given here. * marks the point of attachment. C20 diacid = O=C(O)CCCCCCCCCCCCCCCCCCC(=O)*; γGlu = O=C(O)[C@H](CCC(=O)[*:2])N[*:1]; AEEA = NCCOCCOCC(=O)O

First the molecules themselves.
T1: human calcitonin receptor (human, UniProt P30988 25-474)
T1 construct: whole, on cells; Cell membranes of a stably transfected BHK cell line (Assay VII); also called hCTR; hCT
T1 sequence (looked up): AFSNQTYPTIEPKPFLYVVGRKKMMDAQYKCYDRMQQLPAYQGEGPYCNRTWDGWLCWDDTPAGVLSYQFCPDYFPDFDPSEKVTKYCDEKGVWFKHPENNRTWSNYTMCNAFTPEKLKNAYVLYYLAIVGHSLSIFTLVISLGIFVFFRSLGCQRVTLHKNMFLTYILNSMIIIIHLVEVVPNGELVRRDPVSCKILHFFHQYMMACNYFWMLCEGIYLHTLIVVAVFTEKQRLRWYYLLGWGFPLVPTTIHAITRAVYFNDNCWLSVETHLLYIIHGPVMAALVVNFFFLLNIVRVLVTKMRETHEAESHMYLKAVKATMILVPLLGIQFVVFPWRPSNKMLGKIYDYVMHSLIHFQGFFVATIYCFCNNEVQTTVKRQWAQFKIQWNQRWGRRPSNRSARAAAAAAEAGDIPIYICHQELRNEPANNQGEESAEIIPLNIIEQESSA

T2: rat calcitonin receptor (rat, UniProt P32214 25-516)
T2 construct: whole, on cells; Cell membranes of transiently transfected BHK tk'ts 13 cells (Assay VIII); also called rCTR; rCT
T2 sequence (looked up): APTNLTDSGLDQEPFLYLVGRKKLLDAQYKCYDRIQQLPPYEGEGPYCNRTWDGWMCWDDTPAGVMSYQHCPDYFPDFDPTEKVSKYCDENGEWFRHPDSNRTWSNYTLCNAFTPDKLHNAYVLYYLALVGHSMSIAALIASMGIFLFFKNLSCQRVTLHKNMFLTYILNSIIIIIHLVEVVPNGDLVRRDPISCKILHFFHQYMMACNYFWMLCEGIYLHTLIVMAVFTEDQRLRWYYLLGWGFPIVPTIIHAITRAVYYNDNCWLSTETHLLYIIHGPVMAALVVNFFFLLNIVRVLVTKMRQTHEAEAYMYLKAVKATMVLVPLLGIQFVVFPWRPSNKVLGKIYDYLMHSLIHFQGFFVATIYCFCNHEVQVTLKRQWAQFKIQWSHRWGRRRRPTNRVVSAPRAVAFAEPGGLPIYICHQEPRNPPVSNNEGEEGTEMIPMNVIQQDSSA

T3: rat amylin receptor (rat calcitonin receptor + rat RAMP 3) (rat, UniProt P32214 25-516; Q9JJ73 23-147)
T3 construct: whole, on cells; Cell membranes of transiently transfected BHK tk'ts 13 cells (Assay VI); also called rAmylin-R; rat amylin 3(a) receptor
T3 sequence (looked up) 1: T2 sequence (looked up)
T3 sequence (looked up) 2: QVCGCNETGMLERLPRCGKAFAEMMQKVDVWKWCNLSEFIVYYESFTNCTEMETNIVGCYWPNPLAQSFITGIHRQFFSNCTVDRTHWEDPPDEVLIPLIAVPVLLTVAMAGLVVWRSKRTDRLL

B1: N^-1-[(4S)-4-carboxy-4-(19-carboxynonadecanoylamino)butanoyl]-Gly[Arg1,Arg17,Pro21,Pro27,His35]-h-amylin (peptide)
peptide: {C20 diacid-γGlu}-GRCNTATCATQRLANFLRHSSPNFGAIPSSTNVGSHTY-NH2
modifications: disulfide 3-8
SMILES: CC[C@H](C)[C@H](NC(=O)[C@H](C)NC(=O)CNC(=O)[C@H](Cc1ccccc1)NC(=O)[C@H](CC(N)=O)NC(=O)[C@@H]1CCCN1C(=O)[C@H](CO)NC(=O)[C@H](CO)NC(=O)[C@H](Cc1c[nH]cn1)NC(=O)[C@H](CCCNC(=N)N)NC(=O)[C@H](CC(C)C)NC(=O)[C@H](Cc1ccccc1)NC(=O)[C@H](CC(N)=O)NC(=O)[C@H](C)NC(=O)[C@H](CC(C)C)NC(=O)[C@H](CCCNC(=N)N)NC(=O)[C@H](CCC(N)=O)NC(=O)[C@@H](NC(=O)[C@H](C)NC(=O)[C@@H]1CSSC[C@H](NC(=O)[C@H](CCCNC(=N)N)NC(=O)CNC(=O)CC[C@H](NC(=O)CCCCCCCCCCCCCCCCCCC(=O)O)C(=O)O)C(=O)N[C@@H](CC(N)=O)C(=O)N[C@@H]([C@@H](C)O)C(=O)N[C@@H](C)C(=O)N[C@@H]([C@@H](C)O)C(=O)N1)[C@@H](C)O)C(=O)N1CCC[C@H]1C(=O)N[C@@H](CO)C(=O)N[C@@H](CO)C(=O)N[C@H](C(=O)N[C@@H](CC(N)=O)C(=O)N[C@H](C(=O)NCC(=O)N[C@@H](CO)C(=O)N[C@@H](Cc1c[nH]cn1)C(=O)N[C@H](C(=O)N[C@@H](Cc1ccc(O)cc1)C(N)=O)[C@@H](C)O)C(C)C)[C@@H](C)O
notes: Acylated analogue of human amylin, extended by one residue at the N-terminus; also called compound 47
B2: N^ε-[2-[2-[2-[[(4S)-4-carboxy-4-(19-carboxynonadecanoylamino)butanoyl]amino]ethoxy]ethoxy]acetyl]Lys[Arg1,Arg17,Pro21,Pro27,His35]-h-amylin (peptide)
peptide: K([AEEA-γGlu-C20 diacid])RCNTATCATQRLANFLRHSSPNFGAIPSSTNVGSHTY-NH2
modifications: disulfide 3-8; N-terminus assumed
SMILES: CC[C@H](C)[C@H](NC(=O)[C@H](C)NC(=O)CNC(=O)[C@H](Cc1ccccc1)NC(=O)[C@H](CC(N)=O)NC(=O)[C@@H]1CCCN1C(=O)[C@H](CO)NC(=O)[C@H](CO)NC(=O)[C@H](Cc1c[nH]cn1)NC(=O)[C@H](CCCNC(=N)N)NC(=O)[C@H](CC(C)C)NC(=O)[C@H](Cc1ccccc1)NC(=O)[C@H](CC(N)=O)NC(=O)[C@H](C)NC(=O)[C@H](CC(C)C)NC(=O)[C@H](CCCNC(=N)N)NC(=O)[C@H](CCC(N)=O)NC(=O)[C@@H](NC(=O)[C@H](C)NC(=O)[C@@H]1CSSC[C@H](NC(=O)[C@H](CCCNC(=N)N)NC(=O)[C@@H](N)CCCCNC(=O)COCCOCCNC(=O)CC[C@H](NC(=O)CCCCCCCCCCCCCCCCCCC(=O)O)C(=O)O)C(=O)N[C@@H](CC(N)=O)C(=O)N[C@@H]([C@@H](C)O)C(=O)N[C@@H](C)C(=O)N[C@@H]([C@@H](C)O)C(=O)N1)[C@@H](C)O)C(=O)N1CCC[C@H]1C(=O)N[C@@H](CO)C(=O)N[C@@H](CO)C(=O)N[C@H](C(=O)N[C@@H](CC(N)=O)C(=O)N[C@H](C(=O)NCC(=O)N[C@@H](CO)C(=O)N[C@@H](Cc1c[nH]cn1)C(=O)N[C@H](C(=O)N[C@@H](Cc1ccc(O)cc1)C(N)=O)[C@@H](C)O)C(C)C)[C@@H](C)O
notes: Acylated analogue of human amylin, extended by one residue at the N-terminus; also called compound 45
B3: N^-1-[(4S)-4-carboxy-4-(19-carboxynonadecanoylamino)butanoyl]-Gly[Arg1,Arg17,Pro21,Pro27]-h-amylin (peptide)
peptide: {C20 diacid-γGlu}-GRCNTATCATQRLANFLRHSSPNFGAIPSSTNVGSNTY-NH2
modifications: disulfide 3-8
SMILES: CC[C@H](C)[C@H](NC(=O)[C@H](C)NC(=O)CNC(=O)[C@H](Cc1ccccc1)NC(=O)[C@H](CC(N)=O)NC(=O)[C@@H]1CCCN1C(=O)[C@H](CO)NC(=O)[C@H](CO)NC(=O)[C@H](Cc1c[nH]cn1)NC(=O)[C@H](CCCNC(=N)N)NC(=O)[C@H](CC(C)C)NC(=O)[C@H](Cc1ccccc1)NC(=O)[C@H](CC(N)=O)NC(=O)[C@H](C)NC(=O)[C@H](CC(C)C)NC(=O)[C@H](CCCNC(=N)N)NC(=O)[C@H](CCC(N)=O)NC(=O)[C@@H](NC(=O)[C@H](C)NC(=O)[C@@H]1CSSC[C@H](NC(=O)[C@H](CCCNC(=N)N)NC(=O)CNC(=O)CC[C@H](NC(=O)CCCCCCCCCCCCCCCCCCC(=O)O)C(=O)O)C(=O)N[C@@H](CC(N)=O)C(=O)N[C@@H]([C@@H](C)O)C(=O)N[C@@H](C)C(=O)N[C@@H]([C@@H](C)O)C(=O)N1)[C@@H](C)O)C(=O)N1CCC[C@H]1C(=O)N[C@@H](CO)C(=O)N[C@@H](CO)C(=O)N[C@H](C(=O)N[C@@H](CC(N)=O)C(=O)N[C@H](C(=O)NCC(=O)N[C@@H](CO)C(=O)N[C@@H](CC(N)=O)C(=O)N[C@H](C(=O)N[C@@H](Cc1ccc(O)cc1)C(N)=O)[C@@H](C)O)C(C)C)[C@@H](C)O
notes: Acylated analogue of human amylin, extended by one residue at the N-terminus; also called compound 46
B4: N^ε1-[(4S)-4-carboxy-4-(19-carboxynonadecanoylamino)butanoyl]-[Arg17,Pro21,Pro27]-h-amylin (peptide)
peptide: K([γGlu-C20 diacid])CNTATCATQRLANFLRHSSPNFGAIPSSTNVGSNTY-NH2
modifications: disulfide 2-7; N-terminus assumed
SMILES: CC[C@H](C)[C@H](NC(=O)[C@H](C)NC(=O)CNC(=O)[C@H](Cc1ccccc1)NC(=O)[C@H](CC(N)=O)NC(=O)[C@@H]1CCCN1C(=O)[C@H](CO)NC(=O)[C@H](CO)NC(=O)[C@H](Cc1c[nH]cn1)NC(=O)[C@H](CCCNC(=N)N)NC(=O)[C@H](CC(C)C)NC(=O)[C@H](Cc1ccccc1)NC(=O)[C@H](CC(N)=O)NC(=O)[C@H](C)NC(=O)[C@H](CC(C)C)NC(=O)[C@H](CCCNC(=N)N)NC(=O)[C@H](CCC(N)=O)NC(=O)[C@@H](NC(=O)[C@H](C)NC(=O)[C@@H]1CSSC[C@H](NC(=O)[C@@H](N)CCCCNC(=O)CC[C@H](NC(=O)CCCCCCCCCCCCCCCCCCC(=O)O)C(=O)O)C(=O)N[C@@H](CC(N)=O)C(=O)N[C@@H]([C@@H](C)O)C(=O)N[C@@H](C)C(=O)N[C@@H]([C@@H](C)O)C(=O)N1)[C@@H](C)O)C(=O)N1CCC[C@H]1C(=O)N[C@@H](CO)C(=O)N[C@@H](CO)C(=O)N[C@H](C(=O)N[C@@H](CC(N)=O)C(=O)N[C@H](C(=O)NCC(=O)N[C@@H](CO)C(=O)N[C@@H](CC(N)=O)C(=O)N[C@H](C(=O)N[C@@H](Cc1ccc(O)cc1)C(N)=O)[C@@H](C)O)C(C)C)[C@@H](C)O
notes: Acylated analogue of human amylin; also called compound 48

One test deals with T1, human calcitonin receptor. In words: ratio IC50 human calcitonin receptor / IC50 human amylin receptor. In short, it runs like this: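 Competition binding by SPA with cell membranes (35 ng/μL) and SPA beads in 50 mM Hepes pH 7.4 with 1 mM CaCl2, 5 mM MgCl2, 0.1% OA and 0.02% Tween20. Incubated 120 min at 25 °C with shaking, then counted.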
For the molecule B1, the “Ratio hCT/hAmylin binding” value came to 44.9.
The same measure, in the same setting: as for B2, the figure is 26.8.
B3: the “Ratio hCT/hAmylin binding” value stood at 48.9.
As to B4, the “Ratio hCT/hAmylin binding” value amounted to 69.7.

In another test the target is T2, rat calcitonin receptor. In words: SPA competition vs 125I-calcitonin, membranes with rat CTR (Assay VIII).
Consider B1, for which the IC50 stood at 17.1 nM.
Same read-out and setting: as for B2, the figure is 41.8 nM.
Same read-out and setting: as for B3, the figure is 46.8 nM; as for B4, 112 nM.

In the next test the target is T3, rat amylin receptor (rat calcitonin …). In words: SPA competition vs 125I-rat amylin, membranes with rat CTR + rat RAMP3 (Assay VI).
For the molecule B1, the IC50 was found to be 0.203 nM.
Still for that read-out and setting: the result for B2 reads 0.623 nM; that for B3, 0.33 nM; that for B4, 0.558 nM.

Another test addresses T2, rat calcitonin receptor. In words: ratio IC50 rat calcitonin receptor / IC50 rat amylin receptor.
For B1, the “Ratio rCT/rAmylin binding” value was found to be 84.3.
The same measure, in the same setting: the result for B2 reads 67.1; that for B3, 142.
On the same count and under the same terms, as for B4, the figure is 201.

The values are drawn from patent US20140087995A1 (published 2014).
